Reference: the supplement of paper PMC9112550, “Optimization of the antimicrobial peptide Bac7 by deep mutational scanning” (BMC Biology, 2022)

tested on: Escherichia coli TOP10; assay: shrunken log2 fold change of peptide-encoding DNA abundance (4.5 h post-induction vs induction); higher = less antimicrobial activity (less host growth inhibition); details: time post-induction: 4.5 h; library: site-saturation at positions 5, 18, 19, 20
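Further: peptides expressed intracellularly from a pBAD plasmid library in pooled LB shake-flask culture, induced with 0.3% L-arabinose, DNA abundance read by NGS, three biological replicates, DESeq2 with apeglm shrinkage.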

Row | Sequence | shrunken log2 fold change
1 | RRIRDRPPRLPRPRPRPDIVPRP | 0.0868
2 | RRIRTRPPRLPRPRPRPWMYPRP | -0.22
3 | RRIRTRPPRLPRPRPRPHPLPRP | -0.503
4 | RRIRQRPPRLPRPRPRPWMLPRP | -0.267
5 | RRIRWRPPRLPRPRPRPVYPPRP | -0.104
6 | RRIRHRPPRLPRPRPRPWIHPRP | -0.197
7 | RRIRIRPPRLPRPRPRPNTSPRP | -0.639
8 | RRIRHRPPRLPRPRPRPVTIPRP | -0.311
9 | RRIRFRPPRLPRPRPRPYGVPRP | -0.00783
10 | RRIRRRPPRLPRPRPRPFEVPRP | 0.0871
11 | RRIRCRPPRLPRPRPRPYPCPRP | 0.00458
12 | RRIRKRPPRLPRPRPRPIPLPRP | 0.0106
13 | RRIRRRPPRLPRPRPRPSWWPRP | 0.327
14 | RRIRCRPPRLPRPRPRPQCIPRP | -0.458
15 | RRIRTRPPRLPRPRPRPWFDPRP | -0.247
16 | RRIRSRPPRLPRPRPRPRCRPRP | 0.385
17 | RRIRDRPPRLPRPRPRPMLEPRP | 0.358
18 | RRIRFRPPRLPRPRPRPPNCPRP | -0.159
19 | RRIRTRPPRLPRPRPRPPDNPRP | -0.0234
20 | RRIRTRPPRLPRPRPRPQVYPRP | -0.168
21 | RRIRYRPPRLPRPRPRPDSAPRP | -0.378
22 | RRIRTRPPRLPRPRPRPWMGPRP | -0.116
23 | RRIRKRPPRLPRPRPRPVHWPRP | 0.621
24 | RRIRVRPPRLPRPRPRPWPCPRP | -0.22
25 | RRIRLRPPRLPRPRPRPHPTPRP | -0.094

Row | Sequence | shrunken log2 fold change
26 | RRIRQRPPRLPRPRPRPHHCPRP | -0.652
27 | RRIRARPPRLPRPRPRPSQVPRP | 0.0429
28 | RRIRMRPPRLPRPRPRPQLFPRP | 0.0897
29 | RRIRDRPPRLPRPRPRPNSGPRP | -0.269
30 | RRIRSRPPRLPRPRPRPFDVPRP | -0.151
31 | RRIRRRPPRLPRPRPRPYSSPRP | -0.0612
32 | RRIRARPPRLPRPRPRPCKIPRP | -0.165
33 | RRIRSRPPRLPRPRPRPAKHPRP | -0.0685
34 | RRIRHRPPRLPRPRPRPHDWPRP | 0.0241
35 | RRIRCRPPRLPRPRPRPLEVPRP | -0.174
36 | RRIRIRPPRLPRPRPRPLPWPRP | -0.019
37 | RRIRDRPPRLPRPRPRPPGTPRP | 0.435
38 | RRIRLRPPRLPRPRPRPCHFPRP | -0.285
39 | RRIRLRPPRLPRPRPRPDDDPRP | 0.129
40 | RRIRHRPPRLPRPRPRPLIQPRP | -0.0847
41 | RRIRIRPPRLPRPRPRPPDAPRP | 0.5
42 | RRIRNRPPRLPRPRPRPCCQPRP | -0.6
43 | RRIRIRPPRLPRPRPRPYEHPRP | -0.0784
44 | RRIRRRPPRLPRPRPRPSICPRP | 0.00217
45 | RRIRNRPPRLPRPRPRPNSHPRP | -0.858
46 | RRIRRRPPRLPRPRPRPPTCPRP | 0.474
47 | RRIRPRPPRLPRPRPRPWMIPRP | -0.334
48 | RRIRFRPPRLPRPRPRPAIRPRP | -0.32
49 | RRIRARPPRLPRPRPRPVEDPRP | 0.0532
50 | RRIRLRPPRLPRPRPRPNQKPRP | -0.0744

Row | Sequence | shrunken log2 fold change
51 | RRIRMRPPRLPRPRPRPGIMPRP | 0.246
52 | RRIRYRPPRLPRPRPRPEFIPRP | -0.628
53 | RRIRRRPPRLPRPRPRPMHCPRP | 0.505
54 | RRIRMRPPRLPRPRPRPAMMPRP | 0.59
55 | RRIRHRPPRLPRPRPRPWKHPRP | -0.0222
56 | RRIRMRPPRLPRPRPRPYACPRP | -0.0298
57 | RRIRVRPPRLPRPRPRPQFKPRP | -0.576
58 | RRIRQRPPRLPRPRPRPLMGPRP | -0.121
59 | RRIRYRPPRLPRPRPRPKHKPRP | -0.545
60 | RRIRKRPPRLPRPRPRPYSWPRP | 0.0046
61 | RRIRSRPPRLPRPRPRPRWGPRP | 0.228
62 | RRIRFRPPRLPRPRPRPPYWPRP | 0.191
63 | RRIRLRPPRLPRPRPRPCYYPRP | -0.936
64 | RRIRCRPPRLPRPRPRPPHWPRP | 0.531
65 | RRIRNRPPRLPRPRPRPRHFPRP | -0.201
66 | RRIRCRPPRLPRPRPRPTDAPRP | 0.215
67 | RRIRSRPPRLPRPRPRPEKKPRP | 0.0751
68 | RRIRIRPPRLPRPRPRPRPIPRP | 0.0745
69 | RRIRPRPPRLPRPRPRPRKRPRP | 0.198
70 | RRIRNRPPRLPRPRPRPKRLPRP | -0.0121
71 | RRIRSRPPRLPRPRPRPKPAPRP | 0.555
72 | RRIRPRPPRLPRPRPRPFGSPRP | 0.0959
73 | RRIRDRPPRLPRPRPRPQLEPRP | -0.0748
74 | RRIRQRPPRLPRPRPRPWYWPRP | -0.468
75 | RRIRLRPPRLPRPRPRPQPAPRP | 0.294

Row | Sequence | shrunken log2 fold change
76 | RRIRHRPPRLPRPRPRPAYPPRP | -0.37
77 | RRIRCRPPRLPRPRPRPQAKPRP | 0.31
78 | RRIRIRPPRLPRPRPRPLQGPRP | -0.182
79 | RRIRFRPPRLPRPRPRPNGSPRP | 0.0396
80 | RRIRQRPPRLPRPRPRPCEWPRP | 0.000996
81 | RRIRDRPPRLPRPRPRPYGEPRP | -0.31
82 | RRIRQRPPRLPRPRPRPTERPRP | 0.313
83 | RRIRLRPPRLPRPRPRPSYWPRP | -0.651
84 | RRIRLRPPRLPRPRPRPFKHPRP | -0.156
85 | RRIRQRPPRLPRPRPRPYNPPRP | -0.529
86 | RRIRMRPPRLPRPRPRPSGLPRP | 0.0901
87 | RRIRMRPPRLPRPRPRPNMTPRP | 0.188
88 | RRIRWRPPRLPRPRPRPGSQPRP | 0.584
89 | RRIRQRPPRLPRPRPRPSAYPRP | -0.247
90 | RRIRGRPPRLPRPRPRPLDKPRP | 0.401
91 | RRIRTRPPRLPRPRPRPQKHPRP | -0.459
92 | RRIRRRPPRLPRPRPRPYISPRP | -0.485
93 | RRIRKRPPRLPRPRPRPEKLPRP | 0.103
94 | RRIRQRPPRLPRPRPRPWGVPRP | 0.122
95 | RRIRFRPPRLPRPRPRPTANPRP | -0.0711
96 | RRIRWRPPRLPRPRPRPCWWPRP | 0.22
97 | RRIRNRPPRLPRPRPRPKPMPRP | 0.375
98 | RRIRWRPPRLPRPRPRPCADPRP | 0.579
99 | RRIRCRPPRLPRPRPRPQLMPRP | 0.285
100 | RRIRGRPPRLPRPRPRPHGPPRP | 0.426

Row | Sequence | shrunken log2 fold change
101 | RRIRLRPPRLPRPRPRPLENPRP | 0.0938
102 | RRIRYRPPRLPRPRPRPKTQPRP | 0.0853
103 | RRIRVRPPRLPRPRPRPFSNPRP | -0.28
104 | RRIRGRPPRLPRPRPRPGMLPRP | 0.498
105 | RRIRGRPPRLPRPRPRPLKKPRP | 0.195
106 | RRIRHRPPRLPRPRPRPKCIPRP | -0.021
107 | RRIRFRPPRLPRPRPRPPNHPRP | -0.0407
108 | RRIRKRPPRLPRPRPRPKSPPRP | 0.385
109 | RRIRRRPPRLPRPRPRPKGAPRP | 0.28
110 | RRIRTRPPRLPRPRPRPHAEPRP | 0.17
111 | RRIRFRPPRLPRPRPRPDACPRP | 0.0499
112 | RRIRARPPRLPRPRPRPSQFPRP | -0.0956
113 | RRIRQRPPRLPRPRPRPWDTPRP | 0.14
114 | RRIRPRPPRLPRPRPRPFLRPRP | -0.327
115 | RRIRWRPPRLPRPRPRPTDCPRP | 0.088
116 | RRIRRRPPRLPRPRPRPEIKPRP | 0.27
117 | RRIRPRPPRLPRPRPRPSMLPRP | -0.186
118 | RRIRQRPPRLPRPRPRPPVNPRP | -0.0759
119 | RRIRHRPPRLPRPRPRPTVMPRP | -0.0285
120 | RRIRVRPPRLPRPRPRPKLGPRP | 0.173
121 | RRIRPRPPRLPRPRPRPCEYPRP | 1.65
122 | RRIRARPPRLPRPRPRPESCPRP | 0.869
123 | RRIRCRPPRLPRPRPRPETPPRP | 1.91
124 | RRIRDRPPRLPRPRPRPAPGPRP | 0.699
125 | RRIRGRPPRLPRPRPRPKLRPRP | 0.675

Row | Sequence | shrunken log2 fold change
126 | RRIRIRPPRLPRPRPRPQIVPRP | -0.167
127 | RRIRRRPPRLPRPRPRPKETPRP | 0.17
128 | RRIRDRPPRLPRPRPRPVAQPRP | 0.616
129 | RRIRCRPPRLPRPRPRPDWDPRP | -0.149
130 | RRIRTRPPRLPRPRPRPTKSPRP | 0.0353
131 | RRIRGRPPRLPRPRPRPQKWPRP | 0.0681
132 | RRIRMRPPRLPRPRPRPCTFPRP | -0.209
133 | RRIRDRPPRLPRPRPRPAANPRP | 0.273
134 | RRIRRRPPRLPRPRPRPKWLPRP | 0.269
135 | RRIRVRPPRLPRPRPRPADAPRP | -0.183
136 | RRIRNRPPRLPRPRPRPTGSPRP | 0.1
137 | RRIRKRPPRLPRPRPRPRKLPRP | 0.0707
138 | RRIRTRPPRLPRPRPRPNYQPRP | -0.362
139 | RRIRHRPPRLPRPRPRPNRVPRP | -0.672
140 | RRIRERPPRLPRPRPRPIVCPRP | -0.022
141 | RRIRMRPPRLPRPRPRPDYSPRP | -0.0167
142 | RRIRVRPPRLPRPRPRPCCNPRP | -0.426
143 | RRIRPRPPRLPRPRPRPDQRPRP | 0.015
144 | RRIRDRPPRLPRPRPRPFWWPRP | 0.641
145 | RRIRIRPPRLPRPRPRPPPNPRP | 0.776
146 | RRIRMRPPRLPRPRPRPQRNPRP | 0.209
147 | RRIRYRPPRLPRPRPRPTRSPRP | -0.581
148 | RRIRFRPPRLPRPRPRPYLNPRP | -0.454
149 | RRIRDRPPRLPRPRPRPMQIPRP | 0.0565
150 | RRIRNRPPRLPRPRPRPPYLPRP | -0.269
